Measurements taken from the supplement of paper PMC9170038.

Tests used:
MS2 coat protein [1] = assay: apparent KD of MS2 coat protein, switch OFF state (with FMN for OFF switches, without FMN for ON switches); designed switch direction (-1 OFF switch, 1 ON switch): -1; higher = weaker reporter binding; details: FMN input: 0 or 200 uM; Eterna round: R93 (includes R88 designs)
Summary of the method: (§1)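 Titration buffer: 100 mM Tris-HCl pH 7.5, 80 mM KCl, 4 mM MgCl2, without or with constant ligand. Designed RNA switches transcribed on-chip from Illumina sequencing clusters received SNAP-549-labelled MS2 coat protein in twofold steps from 0.7 or 1.5 nM to 3 µM. Apparent KD is the median per design of fits to normalised cluster binding curves.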

MS2 coat protein [2] = assay: apparent KD of MS2 coat protein, switch ON state; designed switch direction (-1 OFF switch, 1 ON switch): -1; higher = weaker reporter binding; details: FMN input: 0 or 200 uM; Eterna round: R93 (includes R88 designs)
Summary of the method: as §1

Sequence | apparent KD of MS2 coat protein (MS2 coat protein [1]) | apparent KD of MS2 coat protein (MS2 coat protein [2])
AAGUAGCUAGGAUAUACAUAGAUACAGAUUCAUGUAGAACUACAUGAGGAUCACCCAUGUAGAAGGAGCUAAUA [AJ 35] | 60.3 nM | 31.4 nM
AGCAUGUGAGGAUAUGCGGACUCCAAUAAAUCUGGAGUCCAGUAGAAGGCACAUGAGGAUCACCCAUGUGAUAA [Soenaesma] | 117 nM | 102 nM
GACCAGUGAGGAUAUGUAAAAAAAAGAGAAGAGAAGAGAGAACAGAAGGCACAUGAGGAUCACCCAUGUAGGGA [Default title] | 170 nM | 143 nM
CUCAAGUUAGGAUAUCAAAGAAAAGAAGAGAAAGAAAAGAAUGAGAAGGAACAUGAGGAUCACCCAUGUAAGAA [EteRNA is fun!] | 22.4 nM | 33.4 nM
CUCAUGUGAGGAUAUCAGUAGUAAAAAAAUAAAAUUACUACUGAGAAGGCACAUGAGGAUCACCCAUGUGAAAA [EX4 339: Super Stable 39] | 16.1 nM | 27.4 nM
AAAGUGCAAGGAUAUAUAUGAAAAGUUACGAAAGUAACAAAACAUGAGGAUCACCCAUGUAGAAGGUGCACAAA [Seclusion (MS2 riboswitches - Exlclusion 2)] | 18.3 nM | 24.6 nM
AGUAUGCGAGGAUAUACAUGAGGAUCACCCAUGUGAGAGAUAAGUGUGAGAAAGACAAGUAGAAGGCGCGUACA [JL Lego Mod 27] | 331 nM | 106 nM
AAAAAGUGAGGAUAUGUCAAAAGUCACAAAAGUGACAAAAGACAGAAGGCACAUGAGGAUCACCCAUGUGAGGG [Mod of Eli - Late G + early G segment 4] | 103 nM | 110 nM
CGAAUGUAAGGAUAUAGCCACAUUACGAAUAAGUAGUGUGGCUAGAAGGUACAUGAGGAUCACCCAUGUAUGGG [Exclusion 4.5 (AU closing FMN)] | 51.7 nM | 181 nM
AACGUACAUGAGGAUCACCCAUGUUAGGAUAUGCCGGGUUAGAGCCAACUAAAAAACCGUAGAAGGGACGAAAA [Bilbo Confounded 11 - Jieux - Exclusion 1] | 30.2 nM | 27.6 nM
GGGUCACAUGAGGAUCACCCAUGUAAGGAUAUGCUAGGGAUGGAAACCAUUACGCAACGCAGAAGGUACUAAAG [Janelle Amethyst 18 Mod 11 - Jieux - Exclusion 1] | 59 nM | 40.3 nM
AAAACACAUGAGGAUCACCCAUGUGAGGAUAUGCUAUGGAAAAUAAAAAUAAAACAUAGCAGAAGGCACAAAAA [Denovo 12] | 32.3 nM | 20.3 nM
CUCAUGUCAGGAUAUGUAGCAUGAUACGAAAGUAUCAUGCUACAGAAGGGACAUGAGGAUCACCCAUGUAAAAA [Ex4: 942] | 33.9 nM | 20.2 nM
AAGAAUGCAGGAUAUACAAGAAAGAAAGAAAAGAAAAGAAAACAUGAGGAUCACCCAUGUAGAAGGGCAUAGAA [EteRNA is fun!] | 25 nM | 32.6 nM
AAAAAAAGAGGAUAUACAUGAGAAAAAAAAAUGUAAAAAAAACAUGAGGAUCACCCAUGUAGAAGGCUUAAAAA [Ecxl-I] | 48.3 nM | 33.5 nM
UUUAUGUGAGGAUAUACGAAUAGUAAGUAAGUCUUACAGACGUAGAAGGCACAUGAGGAUCACCCAUGUGAACC [JR_Exc004_Sub309] | 277 nM | 46.4 nM
AGAAAACAUGAGGAUCACCCAUGUCAGGAUAUGUAAAAGAAAAGAAAAGAAAGAAGAAACAGAAGGGACAAGAA [Seth-Peribsen] | 53.7 nM | 56.9 nM
GUGUACAGAGGAUAUACAUAAGCUAGGAAACUAGCAAGAUCACAUGAGGAUCACCCAUGUAGAAGGCUGUACAC [Ex2: 739] | 327 nM | 270 nM
AAAAAGUGAGGAUAUACAUGAGGAUCACCCAUGUGUAUAAAAAAUUACACGAAAGAAUGUAGAAGGCACUAAAA [JL Mayanne Mod 3] | 42.8 nM | 18.2 nM
AUAGUACAUGAGGAUCACCCAUGUCAGGAUAUUCGAAAUGAAAAAAAAAAAAAAUGAAGGAGAAGGGACUAUAA [EX1 Malc#11] | 72 nM | 74.7 nM
AAAGGACGAGGAUAUACAUGAGGAUCACCCAUGUAAAAAACAUAAGAAAAGAAGUUAUGUAGAAGGCGUCCAAA [69%, Moding Meechl, 13] | 17.3 nM | 16.4 nM
GCUUGCCAAGGAUAUACAUGAGGAUCACCCAUGUGAGAGAAAAAAGUGAGAAAGAAAAGUAGAAGGUGGUGAGG [salish99-ex3-110] | 120 nM | 26.4 nM
AGCAAGUAAGGAUAUGCGAAGUCAGGACACACACUGACGAAGCAGAAGGUACAUGAGGAUCACCCAUGUAAGCA [JR_Exclusion-4 65% 3] | 18.7 nM | 24.6 nM

Sequence | apparent KD of MS2 coat protein (MS2 coat protein [1]) | apparent KD of MS2 coat protein (MS2 coat protein [2])
GAAAAAGGAGGAUAUACGUACAUGUCAAAAGACGUGAAGGGACAUGAGGAUCACCCAUGUAGAAGGCUUAAAAG [Mat - Exclusion 2 - JL mod - D95] | 21.4 nM | 59.4 nM
GGUUGUGGAGGAUAUACAUGAGGAUCACCCAUGUGAGAGAAAAAAGUGAGAAAGAAAAGUAGAAGGUCGUGACG [salish99-ex3-69] | 34 nM | 36.8 nM
AAAAGGUCAGGAUAUACAAAAAAAAAAAAAAAAAAAAAAAAGUAGAAGGGACAUGAGGAUCACCCAUGUGAAAA [Exclusion 4 - Omei 2] | 40.3 nM | 64 nM
AAUAAGUCAGGAUAUGCGAAUAGAAGAUAAGAUACCCAAAAGCAGAAGGGACAUGAGGAUCACCCAUGUAAAUA [JR_Exc004_Sub010] | 25.6 nM | 31.1 nM
AAGAAACAUGAGGAUCACCCAUGUCAGGAUAUCCAAGAAAGAAAGAAAGAAAGAAGAAGGAGAAGGGACAAAGG [Lucius Antonius Pedo] | 67.3 nM | 64.8 nM
AAAAAUGGAGGAUAUACAUGAGGAUCACCCAUGUGUAACUAUACUAAGCACUCCUCACGUAGAAGGCCAAAAAA [Gilly Gone Silly 13 - Jieux - Exclusion 3] | 113 nM | 55.3 nM
AAUAUGGGAGGAUAUGCAUAGAUAAAGAAACAUGUUAAAACACAUGAGGAUCACCCAUGUAGAAGGCCCAUAUA [AJ 10] | 335 nM | 103 nM
AAGAACAUAGGAUAUACAAGGAAGAAAGAAAAGAAAAGAAAACAUGAGGAUCACCCAUGUAGAAGGAUGUAGAA [EteRNA is fun!] | 24.8 nM | 24.4 nM
AAAAAGGCAGGAUAUACAUGAGGAUCACCCAUGUUUUAAAAAAAAAAAAAAAAAAAAAGUAGAAGGGCCAAAAA [Ex 3.1] | 39.7 nM | 52.3 nM
UUUUGACAUGAGGAUCACCCAUGUCAGGAUAUAGUAGGACAAAAAAAAAAAAGUUCUACUAGAAGGGAUAUGAA [Design 16: Not So Super Stable 2] | 26.7 nM | 17.8 nM
AAAAAGUGAGGAUAUACAUGAGAAAAAAAAAUGUAAAAAAAACAUGAGGAUCACCCAUGUAGAAGGCACAAAAA [Ecxl-II] | 83.5 nM | 40.8 nM
AGUUGGCGAGGAUAUACAUGAGGAUCACCCAUGUGAGAGAAAAAAGUGAGAAAGAAAAGUAGAAGGCGCUGACA [salish99-ex3-05] | 202 nM | 49.2 nM
AAAAAGAGAGGAUAUGCAGGAGGUAAGGUCAAAAAAAAAAAACAUGAGGAUCACCCAUGUAGAAGGUUUAAAAA [Ecls2-VI] | 23.5 nM | 29.3 nM
AAACGUUGAGGAUAUACAAAAGGGUAUAAAUCAAAAAAAACACAUGAGGAUCACCCAUGUAGAAGGCAACGAAA | 65.6 nM | 128 nM
AACAAACAUGAGGAUCACCCAUGUCAGGAUAUGCAAAUAACAAACAACAAACAACAAAGCAGAAGGGAUAGGAA [Mat - Exclusion 1 - Eli mod - D52] | 21.2 nM | 23.3 nM
AAAAAGUCAGGAUAUACAUGAGGAUCACCCAUGUGAAAGAACGAAAAACGAAAAGCAAGUAGAAGGGACAAAAA [Ruby 78] | 14 nM | 13.1 nM
GUGUACAGAGGAUAUAUAUAAGCAUGGAAACAUGCAAGAUCACAUGAGGAUCACCCAUGUAGAAGGCUGUACAC [Ex2: 737] | 73.7 nM | 23.3 nM
AAGGGACAUGAGGAUCACCCAUGUCAGGAUAUGAUGCGAAUAAAGAAAGAAGAAAGCAUCAGAAGGGACAAAAA [58%, Disencluded 3, 3] | 57.6 nM | 33.7 nM
AGAAAACGAGGAUAUGCAAGGGAAGAAAGAAGAGAGAAAAAACAUGAGGAUCACCCAUGUAGAAGGUGUAAAAA [JR_Exc002_Sub1714] | 37.1 nM | 57.5 nM
AAAAUACAUGAGGAUCACCCAUGUCAGGAUAUUCCUGCAGCCUUGAAUAAGGGCUGGUGAAGAAGGGACGGUGA [Ancele] | 84.6 nM | 33.4 nM
AAGAAGUGAGGAUAUGCUGACAAUAUGAAGACUUGAGGUAUGCAGAAGGCACAUGAGGAUCACCCAUGUAAGAA [JR_Exclusion4_Sub4] | 23.6 nM | 27.4 nM
AAACCACAUGAGGAUCACCCAUGUGAGGAUAUGAACGAAAUAAAAUAAAAAAUAAAGUUCAGAAGGCACAAAAA [Mat - Exclusion 1 - Eli mod - D15] | 22.9 nM | 17.6 nM
